Experimental data taken from the Immune Epitope Database (IEDB).

What was measured:
Conditions in all cases: source organism: Human immunodeficiency virus type 1 (JRCSF ISOLATE)
[1] = biological target: HLA-A*11:01; assay: IEDB peptide-MHC binding, purified MHC/competitive/radioactivity; filed as Kd, often an IC50 or EC50 that approximates it; ≥ and ≤ were set here for values at or beyond the usual limits of such assays
[2] = biological target: HLA-A*03:01; assay: IEDB peptide-MHC binding, purified MHC/competitive/radioactivity; ≥ and ≤ were set here for values at or beyond the usual limits of such assays
[3] = biological target: HLA-A*11:01; assay: as above
[4] = biological target: HLA-A*03:01; assay: IEDB peptide-MHC binding, purified MHC/competitive/radioactivity; filed as Kd, often an IC50 or EC50 that approximates it; ≥ and ≤ were set here for values at or beyond the usual limits of such assays

Row | Sequence | Kd [1] [µM] | IC50 [2] [nM] | IC50 [3] [nM] | Kd [4] [µM]
1 | QMVHQAISPR | 6 | 423 |  | 
2 | KIQNFRVYYR |  | 344 |  | 
3 | AIFQSSMTK |  | 10 |  | 
4 | MVHQAISPR |  | 61.1 | 89.6 | 
5 | MTKILEPFR |  |  |  | 13.8
6 | TIKIGGQLK |  | 40.7 | 182 | 
7 | QMAVFIHNFK |  | 9.2 |  | 
8 | MAVFIHNFK |  | 647 | 20 | 
9 | YLAWVPAHK |  | 143 |  | 
10 | NTPVFAIKK |  | 333 | 100 | 
11 | TLFCASDAK |  | 118 |  | 
12 | AVFIHNFKR |  | 64.7 | 3.3 | 
13 | TTLFCASDAK |  | 120 | 27.3 | 
